In publication PMC8594541 one finds Km and kcat data, which are given here for two proteins.

Substrate in data set [1]: CC(=O)[C@@H](O)[C@H](O)COP(=O)(O)O
As to the kind of experiment: purified protein. The conditions noted are these: NADPH, Mg2+. In kind it is biochemical, Acinetobacter baumannii.

Substrate in data set [2]: CC(=O)[C@@H](O)[C@H](O)COP(=O)(O)O
The data set is described as follows: purified protein. In kind it is biochemical, Klebsiella pneumoniae. The note with it: NADPH, Mg2+.

B1: 1-deoxy-D-xylulose 5-phosphate reductoisomerase (AbIspC) (Acinetobacter baumannii AB307-0294) (protein)
chain: MTQSVCILGVTGSIGRSTLKILGQHPDKYSVFAVSAHSRISELVEICKQFRPKVVVVPEQKIAELKTLFAQQNISDIDVLAGQEGLVDIASHTDVDIVMAAIVGAAGLLPTLAAVKAGKRVLLANKEALVMSGEIMMQAARDHQALLLPVDSEHNAIFQSLPHNYLQADRTGQPQLGVSKILLTASGGPFLNHSLEQLVHVTPQQACKHPNWSMGQKISVDSATLMNKGLELIEACHLFSISEHFVTVVVHPQSIIHSMVQYVDGSTLAQMGNPDMCTPIAHALAWPERLQTNVPALDLFEYSQLNFQAPDTQKFPALNLARQAMRAGGLAPTILNAANEIAVEAFLMERIGFTSIPQVVEHTLEKLENAAAESIECILDKDKVARSVAQQYISSIGG
Regarding B1, in “purified protein [1]”, the Km (commonly the concentration of substrate that gives half-maximal velocity) was determined as 127.6 µM and the catalytic constant (kcat) (as a rule, the maximal rate divided by the concentration of active sites) was 1.92 ± 0.03 s⁻¹.

B2: 1-deoxy-D-xylulose 5-phosphate reductoisomerase (KpIspC) (Klebsiella pneumoniae subsp. pneumoniae MGH 78578) (protein)
chain: MKQLTVLGSTGSIGCSTLDVVRHNPGRFSVAALVAGKNVDRMVEQCLEFTPRYAVMDDAQSAERLRTRLHEHGSRTEVLSGQQAAAEVAALDEVDQVMAAIVGAAGLVPTLAAIRAGKTVLLANKESLVTCGRLFMEAVQQSGARLLPVDSEHNAIFQSMPETIQQHLGYADLAQNGVSSILLTGSGGPFRETAVAELAAMTPDQACRHPNWSMGRKISVDSATMMNKGLEYIEARWLFNASAQQMEVLIHPQSVIHSMVRYQDGSVLAQLGEPDMRTPIAHTMGWPQRLNSGVKPLDFCQLSNLSFSAPDYTRYPCLKLAMDAFDVGQAATTTLNAANEESVAAFLHGDIRFTDIAAVNLAVLDKMDLQEPQSIDDVLVIDAEARAIAHQQLQRLVAQA
Take B2: in the data set “purified protein [2]”, the Km came to 155.5 µM and the kcat came to 2.21 ± 0.06 s⁻¹.
